Our source for the abundance fitness values is the Human Domainome abundance scans (Beltran et al. 2025).

± gives the uncertainty stated by the source.

First the molecules themselves.
B1: CD2-associated protein, residues 1 to 59; numbered along this chain, Q9Y5K6 (parent)
chain: MVDYIVEYDYDAVHDDELTIRVGEIIRNVKKLQEEGWLEGELNGRRGMFPDNFVKEIKR

The series covers variants of B1. Briefly: abundance fitness (aPCA) (normalised: wild type 0, dead -1); higher = more abundant; growth selection in yeast, the domain comes from the species named. To be noted: Homo sapiens.
For MADYIVEYDYDAVHDDELTIRVGEIIRNVKKLQEEGWLEGELNGRRGMFPDNFVKEIKR [V2A], the abundance fitness was -0.074 ± 0.071.
Regarding MMDYIVEYDYDAVHDDELTIRVGEIIRNVKKLQEEGWLEGELNGRRGMFPDNFVKEIKR [V2M], the abundance fitness was found to be 0.087 ± 0.12.
Then MTDYIVEYDYDAVHDDELTIRVGEIIRNVKKLQEEGWLEGELNGRRGMFPDNFVKEIKR [V2T], with -0.095 ± 0.2.
Then MEDYIVEYDYDAVHDDELTIRVGEIIRNVKKLQEEGWLEGELNGRRGMFPDNFVKEIKR [V2E], with -0.031 ± 0.096.
Turning to MNDYIVEYDYDAVHDDELTIRVGEIIRNVKKLQEEGWLEGELNGRRGMFPDNFVKEIKR [V2N], the abundance fitness was 0.064 ± 0.27.
Then MYDYIVEYDYDAVHDDELTIRVGEIIRNVKKLQEEGWLEGELNGRRGMFPDNFVKEIKR [V2Y], with -0.166 ± 0.22; and MCDYIVEYDYDAVHDDELTIRVGEIIRNVKKLQEEGWLEGELNGRRGMFPDNFVKEIKR [V2C], with -0.062 ± 0.12.
Turning to MWDYIVEYDYDAVHDDELTIRVGEIIRNVKKLQEEGWLEGELNGRRGMFPDNFVKEIKR [V2W], the abundance fitness is -0.138 ± 0.2.
Then MDDYIVEYDYDAVHDDELTIRVGEIIRNVKKLQEEGWLEGELNGRRGMFPDNFVKEIKR [V2D], with -0.119 ± 0.22; and MKDYIVEYDYDAVHDDELTIRVGEIIRNVKKLQEEGWLEGELNGRRGMFPDNFVKEIKR [V2K], with 0.086 ± 0.093.
Then MFDYIVEYDYDAVHDDELTIRVGEIIRNVKKLQEEGWLEGELNGRRGMFPDNFVKEIKR [V2F], with 0.008 ± 0.14; and MHDYIVEYDYDAVHDDELTIRVGEIIRNVKKLQEEGWLEGELNGRRGMFPDNFVKEIKR [V2H], with -0.486 ± 0.21.
Take MLDYIVEYDYDAVHDDELTIRVGEIIRNVKKLQEEGWLEGELNGRRGMFPDNFVKEIKR [V2L]: the abundance fitness is -0.087 ± 0.074.
For the variant MRDYIVEYDYDAVHDDELTIRVGEIIRNVKKLQEEGWLEGELNGRRGMFPDNFVKEIKR [V2R], the abundance fitness was -0.084 ± 0.099.
Take MQDYIVEYDYDAVHDDELTIRVGEIIRNVKKLQEEGWLEGELNGRRGMFPDNFVKEIKR [V2Q]: the abundance fitness is -0.224 ± 0.18.
As to MIDYIVEYDYDAVHDDELTIRVGEIIRNVKKLQEEGWLEGELNGRRGMFPDNFVKEIKR [V2I], the abundance fitness stood at 0.054 ± 0.16.
Then MVSYIVEYDYDAVHDDELTIRVGEIIRNVKKLQEEGWLEGELNGRRGMFPDNFVKEIKR [D3S], with -0.048 ± 0.055; and MVVYIVEYDYDAVHDDELTIRVGEIIRNVKKLQEEGWLEGELNGRRGMFPDNFVKEIKR [D3V], with -0.379 ± 0.067; and MVPYIVEYDYDAVHDDELTIRVGEIIRNVKKLQEEGWLEGELNGRRGMFPDNFVKEIKR [D3P], with -0.436 ± 0.11.
With MVHYIVEYDYDAVHDDELTIRVGEIIRNVKKLQEEGWLEGELNGRRGMFPDNFVKEIKR [D3H], the abundance fitness was -0.188 ± 0.1.
Then MVRYIVEYDYDAVHDDELTIRVGEIIRNVKKLQEEGWLEGELNGRRGMFPDNFVKEIKR [D3R], with -0.255 ± 0.046.
As to MVKYIVEYDYDAVHDDELTIRVGEIIRNVKKLQEEGWLEGELNGRRGMFPDNFVKEIKR [D3K], the abundance fitness was -0.297 ± 0.079.
Take MVLYIVEYDYDAVHDDELTIRVGEIIRNVKKLQEEGWLEGELNGRRGMFPDNFVKEIKR [D3L]: the abundance fitness was -0.267 ± 0.051.
Then MVAYIVEYDYDAVHDDELTIRVGEIIRNVKKLQEEGWLEGELNGRRGMFPDNFVKEIKR [D3A], with -0.232 ± 0.066; and MVQYIVEYDYDAVHDDELTIRVGEIIRNVKKLQEEGWLEGELNGRRGMFPDNFVKEIKR [D3Q], with -0.188 ± 0.068; and MVIYIVEYDYDAVHDDELTIRVGEIIRNVKKLQEEGWLEGELNGRRGMFPDNFVKEIKR [D3I], with -0.453 ± 0.094.
Then MVNYIVEYDYDAVHDDELTIRVGEIIRNVKKLQEEGWLEGELNGRRGMFPDNFVKEIKR [D3N], with 0.012 ± 0.18; and MVEYIVEYDYDAVHDDELTIRVGEIIRNVKKLQEEGWLEGELNGRRGMFPDNFVKEIKR [D3E], with 0.014 ± 0.065.
Consider MVMYIVEYDYDAVHDDELTIRVGEIIRNVKKLQEEGWLEGELNGRRGMFPDNFVKEIKR [D3M], for which the abundance fitness is -0.135 ± 0.072.
Turning to MVGYIVEYDYDAVHDDELTIRVGEIIRNVKKLQEEGWLEGELNGRRGMFPDNFVKEIKR [D3G], the abundance fitness was -0.437 ± 0.065.
Consider MVCYIVEYDYDAVHDDELTIRVGEIIRNVKKLQEEGWLEGELNGRRGMFPDNFVKEIKR [D3C], for which the abundance fitness was -0.237 ± 0.085.
Then MVDYSVEYDYDAVHDDELTIRVGEIIRNVKKLQEEGWLEGELNGRRGMFPDNFVKEIKR [I5S], with -0.317 ± 0.1; and MVDYLVEYDYDAVHDDELTIRVGEIIRNVKKLQEEGWLEGELNGRRGMFPDNFVKEIKR [I5L], with -0.105 ± 0.1.
Consider MVDYNVEYDYDAVHDDELTIRVGEIIRNVKKLQEEGWLEGELNGRRGMFPDNFVKEIKR [I5N], for which the abundance fitness is -0.681 ± 0.36.
Then MVDYRVEYDYDAVHDDELTIRVGEIIRNVKKLQEEGWLEGELNGRRGMFPDNFVKEIKR [I5R], with -0.128 ± 0.12; and MVDYAVEYDYDAVHDDELTIRVGEIIRNVKKLQEEGWLEGELNGRRGMFPDNFVKEIKR [I5A], with -0.544 ± 0.17.
Then MVDYTVEYDYDAVHDDELTIRVGEIIRNVKKLQEEGWLEGELNGRRGMFPDNFVKEIKR [I5T], with -0.335 ± 0.14; and MVDYCVEYDYDAVHDDELTIRVGEIIRNVKKLQEEGWLEGELNGRRGMFPDNFVKEIKR [I5C], with -0.343 ± 0.21.
Then MVDYPVEYDYDAVHDDELTIRVGEIIRNVKKLQEEGWLEGELNGRRGMFPDNFVKEIKR [I5P], with -0.979 ± 0.41.
Consider MVDYEVEYDYDAVHDDELTIRVGEIIRNVKKLQEEGWLEGELNGRRGMFPDNFVKEIKR [I5E], for which the abundance fitness is -0.267 ± 0.18.
Consider MVDYVVEYDYDAVHDDELTIRVGEIIRNVKKLQEEGWLEGELNGRRGMFPDNFVKEIKR [I5V], for which the abundance fitness was -0.097 ± 0.075.
MVDYMVEYDYDAVHDDELTIRVGEIIRNVKKLQEEGWLEGELNGRRGMFPDNFVKEIKR [I5M]: the abundance fitness came to 0 ± 0.14.
Then MVDYGVEYDYDAVHDDELTIRVGEIIRNVKKLQEEGWLEGELNGRRGMFPDNFVKEIKR [I5G], with -0.704 ± 0.16; and MVDYDVEYDYDAVHDDELTIRVGEIIRNVKKLQEEGWLEGELNGRRGMFPDNFVKEIKR [I5D], with -0.556 ± 0.32; and MVDYQVEYDYDAVHDDELTIRVGEIIRNVKKLQEEGWLEGELNGRRGMFPDNFVKEIKR [I5Q], with 0.037 ± 0.18.
